The source of these data is patent US20150098945A1 (Daiichi Sankyo, published 2015).

This assay addresses T1, human ROBO3 (pCI-hROBO3-transfected HEK293 cells) (human, UniProt Q96MS0 21-1386).
T1 sequence: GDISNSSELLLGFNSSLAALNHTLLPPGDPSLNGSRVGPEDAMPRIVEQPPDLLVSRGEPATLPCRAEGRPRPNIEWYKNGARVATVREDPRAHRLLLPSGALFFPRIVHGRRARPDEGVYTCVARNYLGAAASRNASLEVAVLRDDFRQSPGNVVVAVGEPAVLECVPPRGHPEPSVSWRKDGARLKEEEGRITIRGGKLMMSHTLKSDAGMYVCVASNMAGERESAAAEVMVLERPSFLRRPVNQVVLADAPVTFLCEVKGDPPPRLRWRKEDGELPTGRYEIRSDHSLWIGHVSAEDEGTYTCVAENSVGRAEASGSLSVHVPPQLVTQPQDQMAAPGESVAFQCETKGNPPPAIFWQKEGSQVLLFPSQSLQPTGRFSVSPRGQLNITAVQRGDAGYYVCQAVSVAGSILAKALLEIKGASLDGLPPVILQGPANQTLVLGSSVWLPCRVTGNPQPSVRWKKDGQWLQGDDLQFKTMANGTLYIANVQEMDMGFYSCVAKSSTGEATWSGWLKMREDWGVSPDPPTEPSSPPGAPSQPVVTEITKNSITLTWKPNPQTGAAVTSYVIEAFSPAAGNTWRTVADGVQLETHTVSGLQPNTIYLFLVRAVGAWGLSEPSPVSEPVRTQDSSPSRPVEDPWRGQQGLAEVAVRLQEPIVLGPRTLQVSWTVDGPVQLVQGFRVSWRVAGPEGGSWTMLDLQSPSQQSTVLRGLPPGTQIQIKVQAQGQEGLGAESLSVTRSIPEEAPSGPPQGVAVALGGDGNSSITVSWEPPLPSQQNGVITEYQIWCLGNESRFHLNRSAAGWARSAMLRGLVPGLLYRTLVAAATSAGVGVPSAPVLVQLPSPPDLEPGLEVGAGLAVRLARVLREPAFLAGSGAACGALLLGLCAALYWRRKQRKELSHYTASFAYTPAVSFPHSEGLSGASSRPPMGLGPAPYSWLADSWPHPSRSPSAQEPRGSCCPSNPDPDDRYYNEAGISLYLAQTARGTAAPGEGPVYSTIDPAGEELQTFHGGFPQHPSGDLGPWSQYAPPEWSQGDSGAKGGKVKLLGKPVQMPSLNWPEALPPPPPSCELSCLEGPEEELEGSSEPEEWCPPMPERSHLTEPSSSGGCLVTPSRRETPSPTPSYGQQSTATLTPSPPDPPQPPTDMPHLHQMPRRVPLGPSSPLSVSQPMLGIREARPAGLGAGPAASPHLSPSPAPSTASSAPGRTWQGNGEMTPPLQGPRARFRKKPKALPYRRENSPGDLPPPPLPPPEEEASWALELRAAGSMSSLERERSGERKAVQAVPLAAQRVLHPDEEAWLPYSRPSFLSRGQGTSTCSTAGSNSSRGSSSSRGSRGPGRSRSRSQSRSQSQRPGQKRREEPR
As to the kind of experiment: flow cytometry, HEK293 cells transfected with pCI-hROBO3, anti-mouse IgG FITC; control histogram IgG. How it is done: HEK293 cells were inoculated at a concentration of 1.2×10⁶ cells/dish or 1.5×10⁶ cells/dish to a 60-mm dish (manufactured by Corning Inc.) and cultured overnight in a DMEM medium containing 10% FBS at 37° C. under 5% CO₂ conditions. On the next day, the HEK293 cells were transfected with pCI-hROBO4, pCI-FLAG-hROBO1, pCI-hROBO2, or pCI-hROBO3 using FuGENE6 Transfection Reagent and further cultured overnight at 37° C. under 5% CO₂ conditions. On the next day, the expression vector-transfected cells were treated with TrypLE Express (manufactured by Life Technologies Corp.), washed with PBS containing 5% FBS, and then suspended in PBS containing 5% FBS. The obtained cell suspension was used in flow cytometry analysis.
Each cell suspension prepared in 4)-4-1 was centrifuged, and the supernatant was removed. […] Data was analyzed using Flowjo. The histogram of FITC fluorescence intensity was prepared. The antibody was determined to bind in a specific manner when the histogram of MAb1 was shifted to a stronger fluorescence intensity region compared with the histogram of the negative control Mouse IgG1 or Mouse IgG2a. […]
On the technique in general: A flow cytometer gives signals particle by particle.

B1: anti-ROBO4 mouse monoclonal antibody MAb1 (antibody, mouse IgG1, V domains shown)
VH: EVQLVESGGGLVKPGGSLKLSCAASGFTFSTYAMSWVRQTPEKRLEWVATISNGGTYTYYPDSVKGRFTISRDNAENTLYLQMSSLRSEDTAMYFCARLIYYDYLDYWGHGTTLTVSS
VL: DAVMTQTPLSLPVSLGDQASISCRSSQSLENSNGNTYLNWYFQKPGQSPQLLIYRVSNRFSGVLDRFSGSGSGTDFTLKISRVEAEDFGVYFCLQVTHVPWTFGGGTKLEIKR
notes: Mouse IgG1 (gamma1), kappa light chain, purified from hybridoma supernatant; also called parent antibody MAb1
For the molecule B1, the binding result is reported as “no binding (tested: 10 µg/mL)”.
